# Laboratory results published in patent US20160279204A1, “PEPTIDES AND PHARMACEUTICAL COMPOSITIONS FOR USE IN THE TREATMENT BY NASAL ADMINISTRATION OF PATIENTS SUFFERING FROM ANXIETY AND SLEEP DISORDERS” (MAX-PLANCK-GESELLSCHAFT ZUR FÖRDERUNG DER WISSENSCHAFT E.V., priority 2011, published 2016).
# Entries after “also recorded” stand apart in the source; their conditions may differ. No end group written: not given here.
# Tests used:
# [1] = tested on: evoked neuronal activity flow from the dentate gyrus to area CA1; conditions: Refojo et al., 2011, von Wolff et al.; cited from earlier work
# [2] = tested on: evoked neuronal activity flow from the dentate gyrus to area CA1; assay: Voltage-sensitive dye imaging (VSDI) in VH slices; design: species or system mouse; conditions: (R)-SHA 68 10 μM, pretreatment 15 min, NPS 1 μM
# Experimental: According to Maggio and Segal (2007) and Fanselow and Dong (2010), VSDI experiments were conducted in the VH. Horizontal brain slices (350 μm-thick) were prepared as described in Refojo et al., 2011 and/or von Wolff et al., 2011). Only the first two slices from the ventral surface of the brain in which the CA1 region was clearly visible were used for the measurements. Staining of slices with the voltage-sensitive dye Di-4-ANEPPS and VSDI were carried out at room temperature (23-25° C.). For staining, slices were kept for 15 min in carbogenated (95% O2/5% CO2) ACSF containing Di-4-ANEPPS (7.5 μg/mL; <0.1% DMSO). The ACSF (pH 7.4) consisted of (in mM): 125 NaCl, 2.5 KCl, 25 NaHCO3, 1.25 NaH2PO4, 2 CaCl2, 1 MgCl2, and 25 glucose. Afterwards, slices were stored for at least 30 min in pure carbogenated ACSF. In the recording chamber, slices were continuously superfused with carbogenated ACSF (3 mL/min flow rate). VSDI and data analysis were performed using the MiCAM02 hard- and software package (BrainVision, Tokyo, Japan). The tandem-lens fluorescence microscope was equipped with the MiCAM02-HR camera and the 2× and 1× lens at the objective and condensing side, respectively. Acquisition settings were: 88×60 pixels frame size, 36.4×40.0 μm pixel size, and 2.2 ms sampling time. To reduce noise, four acquisitions subsequently recorded at intervals of 5 s were averaged. Neuronal activity was evoked by square pulse electrical stimuli (200 μs, 15-20 V) delivered to the dentate gyrus granule cell layer via a custom-made monopolar tungsten electrode (Teflon-insulated to the tip of 75 μm diameter). From recorded signals, the fractional change in fluorescence (ΔF/F) was calculated. For all quantifications, ΔF/F values were spatially and temporally smoothed using a 3×3×3 average filter. VSDI signals presented in images were smoothed with a 5×5×3 average filter. Pixelation of images was reduced by the interpolation function of the MiCAM02 software. […]
# ventral hippocampus (VH) = assay: Spread of Cy3-NPS after microinjection into area CA1 of the VH; format: in vivo, mouse; conditions: 0.07 nmol unilaterally into CA1 of VH, 30 min after injection
# Experimental: Animals were fixed in a stereotactic frame and maintained under isoflurane anesthesia (Forene® 100%, V/V; induction: 2.5%; maintenance: 1.5%; in O2; flow rate: 1 L/min). The mice received acute analgesic treatment with Metacam s.c. during surgery (0.5 mg/kg; in NaCl). 23 gauge stainless-steel guide cannulas were implanted in the CA1 region of the VH at the following coordinates: 3.1 mm posterior, ±3 mm lateral from bregma, and 2 mm ventral from the skull surface (Franklin and Paxinos, 2007). The guide cannulas were fixed with two screws and a two-component adhesive. For behavioural experiments, animals were implanted bilaterally for later bilateral injection, whereas for Cy3-NPS injections, implantation was performed unilaterally. The animals were allowed to recover for at least 6 days before starting the behavioural experiments. Substance infusions were carried out manually, on mice anesthetised by brief inhalation of isoflurane, using a 30 gauge injection cannula connected to a Tygon tube and a 10 μL Hamilton syringe. After infusion, the injection cannula was kept in place for additional 30 s to prevent substance outflow.
# Cy3-NPS was administered unilaterally at a concentration of 0.07 nmol in a volume of 0.7 μL ACSF. […] After mounting with a fluorescence-preserving medium (Shandon Immu-Mount, Thermo Scientific, Bonn, Germany), sections were stored at 4° C.
# EGFP-NPSR = assay: Cy3-NPS uptake in HEK cells transiently transfected with EGFP-NPSR; format: cell-based
# Text: In view of the fact that the NPSR is reported to be the only receptor mediating NPS effects (Duangdao et al., 2009) it may be concluded that the intracellular uptake of Cy3-NPS observed here also in vivo (FIGS. 1A-1D and FIG. 7A) likewise depends on the NPSR.
# brain target neurons = conditions: mouse, in vivo, 4 h
# Experimental: For intranasal application, the anesthetised mice were placed in a supine position, with the head supported at a 450 angle to the body as reported elsewhere (van den Berg et al., 2002). […] The mice were sacrificed at 15 min, 30 min and 4 hrs after the first application.
# Brains were removed, post-fixed in 4% formaldehyde and cryoprotected in 20% sucrose, then shock-frozen in methylbutane. Immunohistochemistry was performed on free-floating cryosections (40 μm). The primary antibodies used were specific for neurofilament (1:1000; Abcam, Cambridge, UK) and GFAP (1:250; DAKO, Glostrup, Denmark). The secondary antibodies used were specific for mouse (Alexa 488 goat anti-mouse IgG) and rabbit (Alexa 488 donkey anti-rabbit IgG) (1:300; Invitrogen, Leek, The Netherlands). The sections were counterstained with DAPI (200 ng/ml; Carl Roth, Karlsruhe, Germany) and mounted with a fluorescence-preserving mounting medium (Shandon Immu-Mount, Thermo Scientific, Waltham, Mass., USA).
# After acquisition, the images were processed using Photoshop and Illustrator (Adobe, San Jose, Calif., USA).
# [3] = tested on: NPS target cells in the murine brain; conditions: mouse, in vivo
# Experimental: The mice were sacrificed 30 min post-injection.
# Immunohistochemistry was performed on free-floating cryosections (40 μm).
molecule,measurement,setting,value
"corticotropin-releasing hormone (SEEPPISLDLTFHLLREVLEMARAEQLAQQAHSNRKLMEII; ends and bridges not checked; UniProt P06850 154-194, looked up) [corticotropin-releasing hormone (CRH), anxiogenic neuropeptide]",activity flow from the dentate gyrus to area CA1,[1],enhances this activity flow
"O=C(NCc1ccc(F)cc1)N1CCN2C(=O)OC(c3ccccc3)(c3ccccc3)[C@H]2C1 [(R)-SHA 68, reference compound]",effect of NPSR antagonist on the NPS effect,[2],completely abolished
"Cy3-NPS: fluorescent NPS-conjugate (Cy3-NPS), Phoenix Pharmaceuticals (SFRNGVGTGMKKTSFQRAKS; also: Cy3 label, place not given here; UniProt P0C0P6 70-89, looked up)",spread of injected Cy3-NPS,ventral hippocampus (VH),"remained locally restricted to the VH and accumulated in single cells of the hippocampal pyramidal, radiate, and oriens layers; also recorded: locally restricted to the site of injection"
same,uptake in nuclei of the amygdala,ventral hippocampus (VH),not observed
same,internalisation in HEK cells transfected with EGFP-NPSR,EGFP-NPSR; 10 min of incubation with Cy3-NPS,the receptor-ligand complex was internalised and subsequently accumulated in cytoplasmic and perinuclear vesicular structures
same,uptake in HEK cells transfected with empty EGFP-expression plasmid,EGFP-NPSR; control cells without NPSR,did not take up Cy3-NPS molecules
same,remaining Cy3-NPS after intranasal application,brain target neurons,almost all traces of Cy3-NPS disappeared
same,cellular fluorescence after ICV injection,[3],single cells already exhibited distinct patterns of fluorescence
same,co-localisation with neurofilament (NF) and GFAP markers,[3],co-localised exclusively with the neuronal marker
same,subcellular localisation in target cells,[3],found in the cytosol and throughout the processes of target cells
